{"source": "patent US20120331589A1", "biological_target": "Cry1Da receptor protein(s) / binding site in Spodoptera frugiperda (fall armyworm) brush border membrane vesicles (Spodoptera frugiperda)", "test": "homologous competition: displacement of 0.5 nM 125I-Cry1Da core toxin from 150 ug/mL S. frugiperda BBMV", "data": [{"substance": "Cry1Da core toxin protein (non-radiolabeled) (from UniProt P19415 28-594)", "values": [{"measurement": "IC50", "value": 5, "unit": "nM"}]}]}
